In the nanobody polyreactivity screen of Harvey et al. (2022):

Assay: yeast display, Sf9 membrane polyspecificity reagent, FACS + sequencing; frameworks hold sequencing errors
Method in brief: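 Nanobodies from a synthetic yeast display library (Saccharomyces cerevisiae BJ5465), induced 36–48 hours with galactose, were stained 1 hour at 4 °C with 10% biotinylated, detergent-solubilized Sf9 membrane reagent, enriched on streptavidin microbeads, then FACS-sorted. Anti-HA (expression) and streptavidin (reagent binding) fluorescence set low and high (top ~1%) gates. Polyreactivity labels come from the gate of origin. Genes were colony-PCR amplified, MiSeq 2 × 250 sequenced and filtered by CDR length.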

| Sequence | polyreactivity (PSR sort gate) |
| --- | --- |
| QVQLVESGGGLVQAGGSLRLSCAASGSTFFIYAMGWYRQAPGKERELVAAITWRGGTTYYADSVKGRFTISRDNAKNTVYLQMNSLKPEDTAVYYCNADPVDYANIVYYYDYNYWGQGTQVTVSS | low polyreactivity |
| QVQLVESGGGLVQAGGSLRLSCAASGSTFFIYTMGWYRQAPGKEREFVAAISWTGGRTYYADSVKGRFTISRDNAKYTVYLQMNSLIPEDTPVYYCAALYKYSSYDYWGQGTQVTVSS | high polyreactivity |
| QVQLVESGGGLVQAGGSLRLSCAASGSTFFKYAMGWYRQAPGKERELVAAISYSGGSTYYADSVKGRFTISRDNAKNTVYLQMNSLKPVDTAVYYCAARVQNRYRPYYYWGQGTQVTVSS | high polyreactivity |
| QVQLVESGGGLVQAGGSLRLSCAASGSTFFLYAMGWYRQAPGKERELVAAISTTGGSTNYADSVKGRFTISRDNAKNTVYLQMNSLKPEDTAVYYCAAGPSAQSIYDHWGQGTQVTVSS | low polyreactivity |
| QVQLVESGGGLVQAGGSLRLSCAASGSTFFLYAMGWYRQAPGKERELVASITDGGSTNYADSVKGRFTISRDNAKNTVYLQMNSLKPEDTAVYYCAKDYIHFSHKYDYWGQGTQVTVSS | low polyreactivity |
| QVQLVESGGGLVQAGGSLRLSCAASGSTFFLYVRGWYRQAPGKERELVAAITSGGRTYYADSVKGRFTISRDNAKNTVYLQMNSLKPEDTAVYNCAADVRRVRVGKYDYWGQGTQVTVSS | high polyreactivity |
| QVQLVESGGGLVQAGGSLRLSCAASGSTFFNNAMGWYRQAPGKERELVAAITGGGGRTYYADSVKGRFTISRDNAKNTVYLQMNSLKPEDTAVYYCAAVPRRSYGGYPYYYWGQGTQVTVSS | low polyreactivity |
| QVQLVESGGGLVQAGGSLRLSCAASGSTFFPNAMGWDRQAPGKERELVAAITRSDDDTYYADSVKGRFTISRVHAKNTVYLQMNCLKPEDTAVYYCAADGTSTDSPSWPGYEYWGQGTQVTVSS | low polyreactivity |
| QVQLVESGGGLVQAGGSLRLSCAASGSTFFPNGMGWYRQAPGKERELVAAITQDGGSTYYADSVKGRFTISRDNAKNTVYLQMNSLKPEDTAVYYCNADYFVWYIGRVFSRYGYWGQGTQVTVSS | low polyreactivity |
| QVQLVESGGGLVQAGGSLRLSCAASGSTFFPYAMGWYRQAPGKERELVAAIRWSGGRTYYADSVKGRFTISRDNAKNTVYLQMNRLKPEDTAVYYCNAGRYKYTDDYWGQGTQVTVSS | high polyreactivity |
| QVQLVESGGGLVQAGGSLRLSCAASGSTFFPYAMGWYRQAPGKERELVAAIRWSGGRTYYADSVKGRFTISRDNAKNTVYLQMNSLNPEDTAVYYCAAAKYLDYDYWGQGTQVTVSS | high polyreactivity |
| QVQLVESGGGLVQAGGSLRLSCAASGSTFFPYAMGWYRQAPGKERELVAGISSDGGTYYADSVKGRFTISRDNAKNTVYLQMNSLKPEDTAVYYCAALQADRDRYPEFDLMDYWGQGTQVTVSS | low polyreactivity |
| QVQLVESGGGLVQAGGSLRLSCAASGSTFFRNAMGWYRQAPGKERELVAGITSGVTTYYADSVKGRFTISRDNAKNTVYLQMNSLKPEDTAVYYCAARRTGYRLRKSDYWGQGTQVTVSS | high polyreactivity |
| QVQLVESGGGLVQAGGSLRLSCAASGSTFFRYTMGWYRQAPGKERELVAAISWSGGSTYYADSVKGRFTISRDNAKNTVYLQMNSLKPEDTAVYYCAAVYEWDAVKWVDVDMDYWGQGTQVTVSS | low polyreactivity |
| QVQLVESGGGLVQAGGSLRLSCAASGSTFFRYTMGWYRQAPGKERELVAAITSGGGTDYADSVKGRFTISRDNGKNTVYLQMNSLKPDDTAVYYCAVILSWRDYYLYWRGSWRDDYWGQGTQVSVSS | low polyreactivity |
| QVQLVESGGGLVQAGGSLRLSCAASGSTFFTNAMGWYRQAPGKERELVATITWSGGSTYADSVKGRFTISRDNAKNTVYLQMNSLKPEDTAVFYCAAESSSYWGDQGGALWLYDYWGQGTQVTVSS | low polyreactivity |
| QVQLVESGGGLVQAGGSLRLSCAASGSTFFTNVMGWYRQAPGKERELVADISSGGDTNYADSVKGRFTISRDNAKNTVYLQMNSLKPEDTAVYYCAVDPNVDYELHGFFFSFDYWGQGTQVTVSS | low polyreactivity |
| QVQLVESGGGLVQAGGSLRLSCAASGSTFFTYAMGWYRQAPGKERELVAAISWSGGTTYYSDSVKWRFTISRDYAKNTDYLQMNSLKPEDTAGYYCASDRDGILKANDYWGQGTQVTVSS | low polyreactivity |
| QVQLVESGGGLVQAGGSLRLSCAASGSTFFYNVMGWYRQAPGKERELVAAITSSGGGTYYADSVKGRFTISRDNAKNTVYLQMNSLKPEDTAVYYCAKPVWLRDYRHGGRFGYWGQGTQVTVSS | low polyreactivity |
| QVQLVESGGGLVQAGGSLRLSCAASGSTFFYYAMGWYRQAPGKERAFVAAISSSVGTTYYADSVKGRFTISRDNAKNTVYLQMNRLKPVDTAVYYCAKASSATRYVQLRQDYDYWGQGTQVTVSS | low polyreactivity |

| Sequence | polyreactivity (PSR sort gate) |
| --- | --- |
| QVQLVESGGGLVQAGGSLRLSCAASGSTFFYYTMGWYIQAPGKERELVADITRGGGTTYYADSVKGRFTISRDNAKNTVYLQMNSLKPEDTAVYYCNAPYPNARYWTGWGYYYWGQGTQVTVSS | high polyreactivity |
| QVQLVESGGGLVQAGGSLRLSCAASGSTFGANAMGWYRQAPGKERELVATISSGGRTYYADSVKGRFTISRDNAKNTVYLQMNSLKPEDTAVYYCNAGADYTYVYISVYVLYDYWGQGTQVTVSS | low polyreactivity |
| QVQLVESGGGLVQAGGSLRLSCAASGSTFGANAMGWYRQAPGKERELVAVITWNDGSTYYADSVKGRFTISRDNAKNTVYLQMNSLKPEDTAVYYCAAEYADSWSAFDWNYYYWVQGTQVTVSS | high polyreactivity |
| QVQLVESGGGLVQAGGSLRLSCAASGSTFGAYAMGWSRKAPGKERELVAAISRRGGSTYYADSVKGRFTISRDNAKNTVYLQMNSLKPEDTAVYYCNAVGTRVDGEHYYWGQGTQVTVSS | high polyreactivity |
| QVQLVESGGGLVQAGGSLRLSCAASGSTFGAYAMGWSRQAPGKERELVAAISKRGGSTYYADSVKGRFTISRDNAKNTVYLQMNSLKPEDTAVYYCATDHFSPTYGYWGQGTQVTVSS | low polyreactivity |
| QVQLVESGGGLVQAGGSLRLSCAASGSTFGAYAMGWYRQAPGKEREFVAAISGGGDGTYADSVKGRFTISRDNAKNTVYLQMNSLKPEDTAVYYCAAEDVPYDREDYWGQGTQVTVSS | low polyreactivity |
| QVQLVESGGGLVQAGGSLRLSCAASGSTFGDYSMGWYRQAPGKERELVAAISRGGSTYYADSVKGRFTISRDNAKNTVYLQMNSLKPEDTAVYYCNNDVGYSASPDGSTFDYWGQGTQVTVSS | low polyreactivity |
| QVQLVESGGGLVQAGGSLRLSCAASGSTFGENAMGWYRQAPGKERELVAGINSTGGSTYYADSVKGRFTISRDNAKNTVSLQMNSLKPEDTAVYYCAAGDWYSGNTSHFYYWGQGTQVTVSS | low polyreactivity |
| QVQLVESGGGLVQAGGSLRLSCAASGSTFGEYAMGWYRQAPGKERELVAAITSSGGSTYYADSVKGRFTISRDNAKNTVYLQMNSLKPEDTAVYYCAADWDYPYDEAVSKDIDYDYWGQGTQVTVSS | low polyreactivity |
| QVQLVESGGGLVQAGGSLRLSCAASGSTFGEYAMGWYRQAPGKERELVAGITSGGSTNYADSVKGRFTISRDNAKNTVYLQMNSLKPEDTAVYYCNARFYGSVDYWGLGTQVTVSS | low polyreactivity |
| QVQLVESGGGLVQAGGSLRLSCAASGSTFGFNAMGWYRQAPGKEREFVAAITRSGGSTYYADSVKGRFTISRDNAKNTVYLQMNSLKPEDTAVYYCAKRRYFYSQWVRAFDYWGQGTQVTVSS | high polyreactivity |
| QVQLVESGGGLVQAGGSLRLSCAASGSTFGFYAMGWYRQAPGKERELVAAISGRGGSTYYADSVKGRFTISRDNAKNTVYLQMNSLKPEDTAVYYCAAKYYGEMYYWGQGTQVTVSS | low polyreactivity |
| QVQLVESGGGLVQAGGSLRLSCAASGSTFGFYAMGWYRQAPGKERELVAAITSGDITYADSVKGRFTISRDNAKNTVYLQMNSLKPEDTAVYYCAASGPYSYDWGQGTQVTVSS | low polyreactivity |
| QVQLVESGGGLVQAGGSLRLSCAASGSTFGGNAMGWYRQAPGKERELVAAISSGGTTNYADSVKGRFTISRDNAKNTVDLQMNSLKPEDTAVYYCNKPHRWPQAGYGYWGQGTQVTVSS | high polyreactivity |
| QVQLVESGGGLVQAGGSLRLSCAASGSTFGGNDMGWYRQAPGKERELVAAISSGTSTNYADSVKGRFTISRDNAKNTVYLQMNSLKPEDTAVYYCNAGFWYRRTYDYWGQGTQVTVSS | low polyreactivity |
| QVQLVESGGGLVQAGGSLRLSCAASGSTFGGNGMGWYRQAPGKEREFVATITWRSGSTYYADSVKGRFTISRDKAKNTVYLKMNILKPEDSAVYYCAKYTSSRRNTWYYYWGQGTEVTVSS | high polyreactivity |
| QVQLVESGGGLVQAGGSLRLSCAASGSTFGGSAMGWYRQAPGKERELVAAISKSGGSTYYADSVKGRFTISRDNAKNTVYLQMNSLKPEDTAVYYCNAPYKRSPYNYWGQGTQVTVSS | high polyreactivity |
| QVQLVESGGGLVQAGGSLRLSCAASGSTFGGYAMGWYIQAPGKERELVADISRRVGSTYYADSVKGRFTISRDNAKNTVYLQMNSLKPEDTAVYYCNVPRIVIISGPSSPFRYYWGQGTQVTVSS | high polyreactivity |
| QVQLVESGGGLVQAGGSLRLSCAASGSTFGGYAMGWYRQAPAKERELVAAISTSGGNTYYADSVKGRFTISRDNAKNTVYLQMNRLKPEDTAVYYCARDRVSWGGQDSWGQGTQVSVSS | high polyreactivity |
| QVQLVESGGGLVQAGGSLRLSCAASGSTFGGYAMGWYRQAPGKERELVAAISGSGVRTYYADSEKGRFTISRDNAKNTVYLQMNSLQPEDTAVYYCAKRVRYPGDRYYYWGQGTQVTVSS | high polyreactivity |
